# According to patent US20250215101A1, “DR5 Agonist and PLK1 Inhibitor or CDK Inhibitor Combination Therapy” (Inhibrx Biosciences, Inc., priority 2022, published 2025):
# Columns and labels:
# [1] = test system: panel of colorectal cancer cell lines and panel of pancreatic cell lines; experiment: Cytotoxicity screen onvansertib +/- 1 nM INBRX-109, summary over the additional panels; type: cell-based; conditions: combination of INBRX-109 and onvansertib
# Source text: The results for a panel of colorectal cancer cell lines are shown in Table 3 and FIGS. 4-6, and the results for a panel of pancreatic cell lines are shown in Table 4 and FIGS. 7 and 8.
# [2] = test system: cancer cell lines HT-29, LS174T, SW620, SW837, SW1463, and LS411N; experiment: Cytotoxicity screen INBRX-109 + onvansertib, summary over the cell lines; type: cell-based; conditions: combination of INBRX-109 and onvansertib
# Experimental: Monolayer cultures of each cell line were harvested for compound screening as detailed below.
# Onvansertib: A 10 mg stock of onvansertib was purchased from Selleck Chemicals and was resuspended to 10 mM in DMSO. This was then aliquoted and stored at −80° C. Aliquots were thawed immediately prior to dilution and use in the assay. A 500× master plate of serial dilutions (6-point 5-fold dilutions in 100% DMSO starting at 500 μM, plus a DMSO only control) was prepared and mixed gently with a pipette. To generate a 5× working dilution plate of onvansertib, a 1:100 dilution was performed from the 500× plate into complete media (EMEM).
# Also on day 2, test and control articles were added.
# On day 4, viability measurements were taken. […] Data was graphed in GraphPad Prism 9.
# [3] = test system: CAL-78; experiment: Cell viability (CellTiter-Glo) cytotoxicity assay, INBRX-109 x CDK9 or MCL-1 inhibitor matrix, 48 h, chondrosarcoma line
# Experimental: (§1) On day 1, cells were seeded as follows. Monolayer cultures of each cell line (chondrosarcoma: CAL-78, OUMS-27, SW1353, and H-EMC-SS; colorectal cancer: SW620; and synovial sarcoma: HS-SY-II) were harvested for compound screening. Culture medium was aspirated, and the cells were washed once with PBS. Accutase was added and flasks were incubated at 37° C. until cells became detached. An equal volume of complete medium was added to quench the Accutase, and the cells were then pipetted up and down several times to generate a homogenous single cell suspension. The density and viability of cells was determined by Trypan Blue using a TC20 Automated Cell Counter. Experimental cells were resuspended to a concentration of 0.17×10^6/mL in Eagle's Minimum Essential Medium (EMEM)/10% FBS/Anti-Anti media (complete EMEM) and seeded in the inner wells of 384-well luminescence plates at 15 mL/well (2,500/well final). Each cell line was plated in duplicate on separate plates. Outer wells were filled with 50 mL PBS, then plates were incubated in a humidified temperature-controlled 37° C. tissue culture incubator at 5% CO2 overnight for 16 hours.
# (§2) These test articles were added, in duplicate, to each cell line. The plates were then centrifuged at 400×g for 1 minute, then incubated in a 37° C. humidity-controlled tissue culture incubator (5% CO2) for 48 hours.
# (§3) After incubation with the test articles, viability measurements were taken, briefly. Plates were equilibrated to room temperature for 10 minutes, then 25 μL of CellTiter-Glo 2.0® was added to each well. Plates were spun for 1 minute at 400×g, then covered and incubated in the dark for 10 minutes at room temperature. Any visible bubbles were removed with 100% ethanol vapor, then luminescence (RLU) was read on the Spectra Max M5e plate reader, using the 384-well opaque plate setting and SoftMax® Pro v5.4 software with an integration time of 50 milliseconds. To determine the effect of test articles on cell viability, raw RLU values were exported to Excel and percent survival was calculated as a percentage of vehicle control (0.5% DMSO in EMEM), where the vehicle control is set at 100%. Data was graphed in GraphPad Prism 9.
# [4] = test system: HS-SY-II; experiment: Cell viability (CellTiter-Glo) cytotoxicity assay, INBRX-109 x CDK9 or MCL-1 inhibitor matrix, 48 h, synovial sarcoma line
# Experimental: as §1, §2, §3
# [5] = test system: OUMS-27; experiment: Cell viability (CellTiter-Glo) cytotoxicity assay, INBRX-109 x CDK9 or MCL-1 inhibitor matrix, 48 h, chondrosarcoma line
# Experimental: as §1, §2, §3
# [6] = test system: H-EMC-SS; experiment: as above
# Experimental: as §1, §2, §3
# [7] = test system: several cancerous cell lines; experiment: Previous cytotoxicity assays with several cancerous cell lines; type: cell-based
# [8] = test system: SW620; experiment: Cell viability (CellTiter-Glo) cytotoxicity assay, INBRX-109 x CDK9 or MCL-1 inhibitor matrix, 48 h, colorectal cancer line
# Experimental: as §1, §2, §3
# [9] = INBRX-109 + 125 nM flavopiridol
molecule,measurement,setting,value
CN1CCN(c2ccc(OC(F)(F)F)c(Nc3ncc4c(n3)-c3c(c(C(N)=O)nn3CCO)CC4)c2)CC1 [Onvansertib],cell killing by the combination compared to either agent alone,[1],increased cell killing
same,cell killing by the combination,[2],increased cell killing on every cancer cell line tested
"INBRX-109: DR5-binding polypeptide consisting of SEQ ID NO: 7 (two VHH domains and an Fc region); DR5 agonist (protein, INBRX-109, DR5 agonist) EVQLLESGGGEVQPGGSLRLSCAASGLTFPNYGMGWFRQAPGKEREFVSAIYWSGGTVYYAESVKGRFTISRDNAKNTLYLQMSSLRAEDTAVYYCAVTIRGAATQTWKYDYWGQGTLVTVKPGGSGGSEVQLLESGGGEVQPGGSLRLSCAASGLTFPNYGMGWFRQAPGKEREFVSAIYWSGGTVYYAESVKGRFTISRDNAKNTLYLQMSSLRAEDTAVYYCAVTIRGAATQTWKYDYWGQGTLVTVKPGGGGDKTHTCPPCPAPGGPSVFLFPPKPKDTLMISRTPEVTCVVVDVSHEDPEVKFNWYVDGVEVHNAKTKPREEQYNSTYRVVSVLTVLHQDWLNGKEYKCKVSNKALPAPIEKTISKAKGQPREPQVYTLPPSRDELTKNQVSLTCLVKGFYPSDIAVEWESNGQPENNYKTTPPVLDSDGSFFLYSKLTVDKSRWQQGNVFSCSVMHEALHNHYTQKSLSLSPGK",EC50,[3]; INBRX-109 + 2 μM AZD-5991,3.93 pM
same,EC50,[3]; INBRX-109 only (Table 5),> 3600 pM
same,EC50,[3]; INBRX-109 only (Table 7),unstable
same,EC50,[3]; INBRX-109 only (Table 9),17.2 pM
same,EC50,[3]; INBRX-109 only (Table 11),28.9 pM
same,EC50,[4]; INBRX-109 + 125 nM enitociclib,646 pM
same,EC50,[4]; [9],1.93 pM
same,EC50,[4]; INBRX-109 + 2 μM AZD-5991,Unstable
same,EC50,[4]; INBRX-109 only (Table 9),Unstable
same,EC50,[4]; INBRX-109 only (Table 11),11 pM
same,EC50,[5]; INBRX-109 + 2 μM AZD-5991,8.71 pM
same,EC50,[5]; INBRX-109 only (Table 5),982 pM
same,EC50,[5]; INBRX-109 only (Table 7),> 4090 pM
same,EC50,[5]; INBRX-109 only (Table 11),Unstable
same,EC50,[5]; INBRX-109 only (Table 13),8870 pM
same,EC50,[6]; INBRX-109 + 125 nM enitociclib,2.33 pM
same,EC50,[6]; [9],1.46 pM
same,EC50,[6]; INBRX-109 + 2 μM AZD-5991,2.59 pM
same,EC50,[6]; INBRX-109 only (Table 5),2.2 pM
same,EC50,[6]; INBRX-109 only (Table 7),1.96 pM
same,EC50,[6]; INBRX-109 only (Table 9),9.25 pM
same,EC50,[6]; INBRX-109 only (Table 11),9.26 pM
same,EC50,[6]; INBRX-109 only (Table 13),10.2 pM
same,maximally efficacious concentration,[7],1 nM
same,EC50,[8]; INBRX-109 + 2 μM AZD-5991,5.78 pM
same,EC50,[8]; INBRX-109 only (Table 5),7.8 pM
same,EC50,[8]; INBRX-109 only (Table 7),98.1 pM
same,EC50,[8]; INBRX-109 only (Table 9),1.37 pM
same,EC50,[8]; INBRX-109 only (Table 11),1.98 pM
same,EC50,[8]; INBRX-109 only (Table 13),9.84 pM
